Assay results published in patent US20240041922A1 (MONASH UNIVERSITY, published 2024).

Key:
[1] = molecular target: T1, human recombinant NAMPT(1) (recombinant human visfatin, PeproTech) (human, UniProt P43490 27-491, limits assumed); assay: ELISA: plate coated with 20 nM GST-hrCCR5, 0-800 nM hrNAMPT(1), biotinylated anti-NAMPT detection, BSA signal deducted, non-linear fit
T1 construct: Bought protein; also called hrNAMPT(1); hrNAMPT source 1
Experimental: Wells were blocked for 1 h at room temperature with 1% BSA in PBS containing 0.05% Tween-20 (PBS-T).

[2] = molecular target: CCR5 (as used in the NAMPTcif competition assay of FIG. 9b); assay: competition assay: inhibition of NAMPT binding to CCR5 by NAMPTcif (FIG. 9b); format not described
[3] = molecular target: T2, recombinant mouse CCR5 (MyBioSource) (mouse, UniProt P51682 1-354, limits assumed); assay: competitive ELISA: plate coated with 20 nM mrCCR5, 0-400 nM mrCCL4 with 100 nM hrNAMPT(1) as competitor, bound hrNAMPT(1) detected
T2 construct: Coated on the ELISA plate at 20 nM; also called mrCCR5; mouse recombinant CCR5
T2 sequence (P51682 whole entry): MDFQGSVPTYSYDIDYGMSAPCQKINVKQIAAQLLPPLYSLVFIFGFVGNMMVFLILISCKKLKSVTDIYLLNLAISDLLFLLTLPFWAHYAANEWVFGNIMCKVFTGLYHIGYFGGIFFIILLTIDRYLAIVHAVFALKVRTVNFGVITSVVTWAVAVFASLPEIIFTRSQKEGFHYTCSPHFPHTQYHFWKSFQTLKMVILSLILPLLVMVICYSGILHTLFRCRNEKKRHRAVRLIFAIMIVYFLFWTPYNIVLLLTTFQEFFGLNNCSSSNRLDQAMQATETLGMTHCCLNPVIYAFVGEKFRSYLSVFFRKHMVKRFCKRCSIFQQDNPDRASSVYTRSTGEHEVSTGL
Experimental: Then, wells were blocked for 1 h at room temperature with 1% BSA in PBS containing 0.05% Tween-20 (PBS-T).

T1 sequence (P43490 27-491 limits assumed): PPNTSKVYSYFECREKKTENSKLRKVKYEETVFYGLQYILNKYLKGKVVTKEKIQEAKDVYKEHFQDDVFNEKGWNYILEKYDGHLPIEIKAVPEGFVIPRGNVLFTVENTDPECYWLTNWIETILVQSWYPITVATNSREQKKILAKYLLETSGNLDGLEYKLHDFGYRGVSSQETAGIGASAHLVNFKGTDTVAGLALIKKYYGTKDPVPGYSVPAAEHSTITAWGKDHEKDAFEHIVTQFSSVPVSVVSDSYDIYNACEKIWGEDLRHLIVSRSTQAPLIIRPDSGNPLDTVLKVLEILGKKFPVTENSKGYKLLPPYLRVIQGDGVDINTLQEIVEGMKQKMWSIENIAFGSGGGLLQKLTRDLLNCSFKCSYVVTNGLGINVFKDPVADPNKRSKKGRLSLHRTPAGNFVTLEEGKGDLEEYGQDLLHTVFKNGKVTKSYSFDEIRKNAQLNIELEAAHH

B1: GST-fused recombinant human CCR5 (Abcam) (receptor)
chain: not shown
notes: Coated on the ELISA plate at 20 nM; GST is put first here only by convention; also called hrCCR5; human recombinant CCR5; not shown: GST fusion partner
Kd [1]: 172 nM

B2: NAMPT402-491 (recombinant C-terminal 'cytokine finger' fragment of NAMPT) (ligand)
chain: MSYVVTNGLGVNVFKDPVADPNKRSKKGRLSLHRTPAGNFVTLEEGKGDLEEYGHDLLHTVFKNGKVTKSYSFDEVRKNAQLNIEQDVAPHHHHHHH
notes: Made in E. coli BL21(DE3) from pET22b(+) and purified on HisTap; also called NAMPTcif; cif
IC50 [2]: 21.5 nM

B3: recombinant murine CCL4/MIP-1beta (PeproTech) (ligand, mouse, UniProt P14097 24-92, looked up)
chain: APMGSDPPTSCCFSYTSRQLHRSFVMDYYETSSLCSKPAVVFLTKRGRQICANPSEPWVTEYMSDLELN
notes: also called mrCCL4; mouse recombinant CCL4
IC50 [3]: 34.4 nM
